Columns and labels:
[1] = biological target: T1, vector control (GAL4 binding domain vector without insert) (Saccharomyces cerevisiae (strain ATCC …, UniProt P04386)); test: yeast two-hybrid, b-galactosidase; vector control
Experimental: (§1) The experiment was conducted using the two-hybrid assay as described in U.S. Pat. No. 5,283,173, or Chien et al., 1991, Proc. Natl. Acad. Sci. USA, 88: 9578–9582. The cDNAs that encode 091-1F84, Sequence ID No. 3, 091-21A31, Sequence ID No. 1 and 091-132Q20, Sequence ID No. 5 were fused to the GAL 4 activation domain, and those regions of BRCA1 shown in the table were fused to the binding domain of GAL4. The "+" sign is a subjective measure of the amount of b-galactosidase activity. One "+" being the lowest, and three "+++" being the highest activity.
(§2) Experiments were conducted to ascertain which regions of BRCA1 interact with the three BRCA1 Modulators described in Example 1. The experiment was conducted using the two-hybrid assay as described in U.S. Pat. No. 5,283,173, or Chien et al., 1991, Proc. Natl. Acad. Sci. USA, 88: 9578–9582. The cDNA that encodes the 091-1F84, Sequence ID No. 3, 091-21A31, Sequence ID No. 1, and 091-132Q20, Sequence ID No. 5 was fused to the GAL4 activation domain, and those regions of BRCA1 shown in Table 1 and that contain BRCA1 amino acids 1–300, 1–600, or 8–1293 were fused to the binding domain of GAL4. Controls consisted of the vector, or bcl2 fused to the GAL4 binding domain (See, U.S. Pat. 5,539,085).

[2] = biological target: BRCA1 (1-300) fused to the GAL4 binding domain (human); test: yeast two-hybrid, b-galactosidase
Experimental: as §1, §2

[3] = biological target: BRCA1 (1-600) fused to the GAL4 binding domain (human); test: yeast two-hybrid (Example 3)
Experimental: (§3) Two hybrid experiments were conducted to ascertain the regions of the BRCA1 Modulator 091-21A31, Sequence ID No. 1 that interact with BRCA1. The assay was run essentially as described in Example 1. Transformation and growth of yeast cultures were performed essentially as described in U.S. Pat. No. 5,283,173; Chien et al., 1991, Proc. Natl. Acad. Sci. USA, 88: 9578–9582; or Spaargaren, M., et al., (1994) Biochem. J. 300, 303–307.

[4] = biological target: BRCA1 (1-300) fused to the GAL4 binding domain (human); test: yeast two-hybrid (Example 3)
Experimental: as §3

[5] = biological target: T1, vector control (GAL4 binding domain …); test: yeast two-hybrid (Example 3); vector control
Experimental: as §3

[6] = biological target: GAL4-BRCA1 (8-1293): BRCA1 amino acids 8-1293 fused to the GAL4 binding domain (human); test: yeast two-hybrid (Example 3)
Experimental: as §3

Binder | binding result [1] | binding result [2] | binding result [3] | binding result [4] | binding result [5] | binding result [6]
BRCA1 Modulator Protein 091-132Q20, Sequence ID No. 5, fused to the GAL4 activation domain (other) ARGGAEEATEAGRGGRRRSPRQKFEIGTMEEAGICGLGVKADMLCNSQSNDILQHQGSNCGGTSNKHSLEEDEGSDFITENRNLVSPAYCTQESREEIPGGEARTDPPDGQQDSECNRNKEKTLGKEVLLLMQALNTLSTPEEKLAALCKKYADLLEESRSVQKQMKILQKKQAQIVKEKVHLQSEHSKAILARSKLESLCRELQRHNKTLKEENMQQAREEEERRIEATAHFQITLNEIQAQLEQHDIHNAKLRQENIELGEKLKKLIEQYALREEHIDKVFKHKELQQQLVDAKLQQTTQLIKEADEKHQREREFLLKEATESRHKYEQMKQQEVQLKQQLSLYMDKFEEFQTTMAKSNELFTTFRQEMEKMTKKIKKKKKKLE | no binding | no binding | – | – | – | –
091-21A31, Sequence ID No. 1 fragment containing amino acids 1-300 fused to the GAL4 activation domain (other) MPIRALCTICSDFFDHSRDVAAIHCGHTFHLQCLIQWFETAPSRTCPQCRIQVGKRTIINKLFFDLAQEEENVLDAEFLKNELDNVRAQLSQKDKEKRDSQVIIDTLRDTLEERNATVVSLQQALGKAEMLCSTLKKQMKYLEQQQDETKQAQEEARRLRSKMKTMEQIELLLQSQRPEVEEMIRDMGVGQSAVEQLAVYCVSLKKEYENLKEARKASGEVADKLRKDLFSSRSKLQTVYSELDQAKLELKSAQKDLQSADKEIMSLKKKLTMLQETLNLPPVASETVDRLVLESPAPVE | – | – | no binding | no binding | no binding | –
BRCA1 Modulator Protein 091-1F84, Sequence ID No. 3, fused to the GAL4 activation domain (other) ARESLSLPSMLRDAAIGTTPFSTCSVGTWFTPSAPQEKSTNTSQTGLVGTKHSTSETEQLLCGRPPDLTALSRHDLEDNLLSSLVILEVLSRQLRDWKSQLAVPHPETQDSSTQTDTSHSGITNKLQHLKESHEMGQALQQARNVMQSWVLISKELISLLHLSLLHLEEDKTTVSQESRRAETLVCCCFDLLKKLRAKLQSLKAEREEARHREEMALRGKDAAEIVLEAFCAHASQRISQLEQDLASMREFRGLLKDAQTQLVGLHAKQEELVQQTVSLTSTLQQDWRSMQLDYTTWTALLSRSRQLTEKLTVKSQQALQERDVAIEEKQEVSRVLEQVSAQLEECKGQTEQLELENSRLATDLRAQLQILANMDSQLKELQSQHTHCAQDLAMKDELFCQLTQSNEEQAAQWQKEEMALKHMQAELQQQQAVLAKEVRDLKETLEFADQENQVAHLELGQVECQLKTTLEVLRERSLQCENLKDTVENLTAKLASTIADNQEQDLEKTRQYSQKLRLLTEQLQSLTLFLQTKLKEKTEQETLLLSTACPPTQEHPLPNDRTFLGSILTAVADEEPESTPVPLLGSDKSAFTRVASMVSLQPAETPGMEESLAEMSIMTTELQSLCSLLQESKEEAIRTLQRKICELQVRLQAQEEQHQEVQKAKEADIEKLNQALCLRYKNEKELQEVIQQQNEKILEQIDKSGELISLREEVTHLTRSLRRAETETKVLQEALAGQLDSNCQPMATNWIQEKVWLSQEVDKLRVMFLEMKNEKEKLMIKFQSHRNILEENLRRSDKELEKLDDIVQHIYKTLLSIPEVVRGCRELQGLLEFLS | no binding | no binding | – | – | – | –
091-21A31, Sequence ID No. 1 fragment containing amino acids 78-469 fused to the GAL4 activation domain (other) FLKNELDNVRAQLSQKDKEKRDSQVIIDTLRDTLEERNATVVSLQQALGKAEMLCSTLKKQMKYLEQQQDETKQAQEEARRLRSKMKTMEQIELLLQSQRPEVEEMIRDMGVGQSAVEQLAVYCVSLKKEYENLKEARKASGEVADKLRKDLFSSRSKLQTVYSELDQAKLELKSAQKDLQSADKEIMSLKKKLTMLQETLNLPPVASETVDRLVLESPAPVEVNLKLRRPSFRDDIDLNATFDVDTPPARPSSSQHGYYEKLCLEKSHSPIQDVPKKICKGPRKESQLSLGGQSCAGEPDEELVGAFPIFVRNAILGQKQPKRPRSESSCSKDVVRTGFDGLGGRTKFIQPTDTVMIRPLPVKPKTKVKQRVRVKTVPSLFQAKLDTFLWS | – | – | – | no binding | no binding | –
BRCA1 Modulator Protein 091-21A31, Sequence ID No. 1, fused to the GAL4 activation domain (other) MPIRALCTICSDFFDHSRDVAAIHCGHTFHLQCLIQWFETAPSRTCPQCRIQVGKRTIINKLFFDLAQEEENVLDAEFLKNELDNVRAQLSQKDKEKRDSQVIIDTLRDTLEERNATVVSLQQALGKAEMLCSTLKKQMKYLEQQQDETKQAQEEARRLRSKMKTMEQIELLLQSQRPEVEEMIRDMGVGQSAVEQLAVYCVSLKKEYENLKEARKASGEVADKLRKDLFSSRSKLQTVYSELDQAKLELKSAQKDLQSADKEIMSLKKKLTMLQETLNLPPVASETVDRLVLESPAPVEVNLKLRRPSFRDDIDLNATFDVDTPPARPSSSQHGYYEKLCLEKSHSPIQDVPKKICKGPRKESQLSLGGQSCAGEPDEELVGAFPIFVRNAILGQKQPKRPRSESSCSKDVVRTGFDGLGGRTKFIQPTDTVMIRPLPVKPKTKVKQRVRVKTVPSLFQAKLDTFLWS | no binding | no binding | – | – | – | –
091-21A31, Sequence ID No. 1 fragment containing amino acids 300-469 fused to the GAL4 activation domain (other) EVNLKLRRPSFRDDIDLNATFDVDTPPARPSSSQHGYYEKLCLEKSHSPIQDVPKKICKGPRKESQLSLGGQSCAGEPDEELVGAFPIFVRNAILGQKQPKRPRSESSCSKDVVRTGFDGLGGRTKFIQPTDTVMIRPLPVKPKTKVKQRVRVKTVPSLFQAKLDTFLWS | – | – | no binding | no binding | no binding | no binding
